The data set has as its system Saccharomyces cerevisiae. The experiment in a line: transcriptional activation domain activity (GFP:mCherry ratio, weighted mean of sorted bins, harmonized to initial dataset scale) (arbitrary fluorescence ratio units); higher = stronger transcriptional activation. The following applies: beta-estradiol 1 µM; induction time 4 h. Put shortly:
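Barcoded protein tiles fused to an estradiol-inducible synthetic transcription factor were integrated at the yeast URA3 locus, in diploids carrying a GFP reporter. Cultures were diluted 1:5 into SC with 1 uM beta-estradiol, held 4 hours at 30 °C, sorted into 8 bins by GFP:mCherry ratio, and barcodes sequenced. Tiles under 50 reads were discarded. Activation activity is the read-weighted mean of bin median fluorescence, averaged across barcodes, then linearly mapped onto the initial dataset scale.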

As to “HAGTMESHPHTNIHEELKEFLSGDLIEAEDNAKLMFGDDNSNPADYLLEFGSG”, the “transcriptional activation domain activity” value worked out at 72500. In the case of “GRRRVWTSLLDRGAGGEGGAGYVCGVTIDEGSNISGDHIQSTCILVDEYCELC”, the “transcriptional activation domain activity” value stood at 74500. Consider “MADVSSARINIDRAKQGRGLGRVATAGCSRDRILLIRSSHSVWRAACHLWAVP”, for which the “transcriptional activation domain activity” value was 60500. In the case of “GGGGQKRKAGAAQDDASSQQPKKKKAKKGGKGKGAQQQKQQGGASGSGGGQAS” it was 31500. For “MHRLHYLMCIIIGVRLTAVVGLGRHRVVYVYCFCFSDTSRKMVRQDGIKLFTA”, the “transcriptional activation domain activity” value came to 43200. With “MSQFDFGLLFGQPFFLCSLVLFGLGWFITFIATCTIGSSPHLIWVEIFYNLFL”, the “transcriptional activation domain activity” value stood at 58500. For “ESEVAVVVHIGANTTAYQFLALCAMMAPMRDLFYAFGRVTIYALAPMFHAVRV”, the “transcriptional activation domain activity” value turned out to be 73900. “KANSKAKLSKKDESSDESESDSEDEKPAPKANGKQVCCAVPLAIFFIALLTKY”: the “transcriptional activation domain activity” value was determined as 57400.

As for “CFSKCLDGHTLLLCTLYFLIINQKLLYCYVIVFFFWIWLSISLSYICVSELYY”, the “transcriptional activation domain activity” value came to 57100. For “MLLTLQSYFFFLLMFLVNSVSLLSFFSIFVFIIFLRYGCRMLWWHLHCIYPIF”, the “transcriptional activation domain activity” value came out at 38000. “GEGKRGGVGKKGKGKTKGKEGSIGKSNAKKGASETPKKEKEKARGAEASDKGS”: the “transcriptional activation domain activity” value came out at 45600. In the case of “MDGDERPRKRARLACTNCNARRVKCDVTDRQPCRNCEIAHAVCETRESKRGKH” it was 9400; in that of “SPVYLICMGTVLLYVGVIIVMLIERIAYFRPGDGLCVIGLKPVASLSLLCFDL”, 37200; in that of “SATIFSPFDTHLLEPVPSSSSESSAEVMFHGKQMKNFLIDINSFTNQQQQAQD”, 38700. Regarding “MPLMIIFRFTIFIFILFQFLSFPSFGRGVFLSFIFFFIIFFSFHDQLFLILFF”, the “transcriptional activation domain activity” value came to 57000. On to “CDLQQSHYTPWRILFGLREPLVSAMNYLITYIPRGESSVIIGIRTFVLFSLCF”, for which the “transcriptional activation domain activity” value was found to be 37900. In the case of “MLMGCLCSYLRPHSLGCEGCYLLLHSLFIYGLRLVIGRFMSWSFSLVSFLFFY” it was 62100; in that of “AGGAFETGGKRRKGKEKVRLDYNAIAGGQVALVKDDLELLIVHLLISRYLGEA”, 19000.

Regarding “LVVCCLASQVFIDSILLLPVKIVPPFYRLLSGVVNLVICRLTLFFLGFWWIPV”, the “transcriptional activation domain activity” value turned out to be 59500. For “SPDDFDQTLPLDLSDENITEVAYLPENQHSVLSSTGISNEHTKLFLILNEIIS”, the “transcriptional activation domain activity” value was found to be 63000. In the case of “AAEDVEGEGEAKEKKSKKRRAEANGVGEGEEGERKKKKRKEKAVEQTEEEVKP”, the “transcriptional activation domain activity” value stood at 34800. In the case of “GEGEAKTKKRNKRSKAPVEGEAAETPAAATTEGEEAAAPAAPKKEKKPRKPRA” it was 8960; in that of “MPRPKRPGAPEAKTRSRKGCWPCKARKVKCGEEKPACSNCSRQGVICDYSIRL”, 34600. As for “FRNGPWWCLAHYIMRAMAVFLLAMSPQVLQVHTDLVLPVKKLIRWLQWMRQDD”, the figure is 64200; as for “PPYVVAPPVVCPYSPLIILFYMVTYFFLHCFRGLMGWLQFLALLLQSLMVGIP”, 28900; as for “KAETTAAKDAGAEPEAKPMRGGGREKKRDAEEAVKKEAVKEKPSKGSTKPASK”, less than 6570. As for “SFTRRLILWNVCALGIIIVLASRRLLRCILLRKKKFDDTMEFSMLSLIFDLCV”, the figure is 71800; as for “CIIFPHPFFSYSFFSFSPLFFFFFPSFLSFLSFLPSFLFFFSIVTPSSSSSTY”, 55100. For the sequence “MVLQNSMIVIFCHSFDIVWSVFLIGHYCILFYRYLIFCYVCVSFNWTFYLYIF”, the “transcriptional activation domain activity” value came out at 58700. “MTDRCRVRCTKLIIIIKGIFFWVSLVSLLFFFLLILSAFSFFLLLLLYYLFTI”: the “transcriptional activation domain activity” value was determined as 46200. As for “QSPSISMEPVSINETGSAYTTTNTALNDIDIPFSINELNELYKQVSSHNSHSQ”, the figure is 84100; as for “IWRCTLFLLYGGHFEAALTCIRASASIGTFRDINVACGRNVAFFLSVLIEKKR”, 63000. On to “MALFLSIFLLFFFLLYLSQITHFHGILFCFFLLCAPCLYIPDSCNPLIQPLFP”, for which the “transcriptional activation domain activity” value worked out at 35300. As for “HRAGTSGQSLQQDDVLHVTRATLVELGNTSISTVIASLLVLLEDLARPYAAVA”, the “transcriptional activation domain activity” value worked out at 36000. As for “MRTGSNFVLFAFFCLVLMFTLTFILVFVCCASVGGILYPFRFLLSFVWILVSL”, the figure is 28200. In the case of “RSSRSKRRSRSPHDSSHKRRSRKEGRRPPSRERDEEDGEKRRHRSSRSHRRRR” it was 11400; in that of “MPQTAGQAVWHFILSLLYYQFVPFHIRRFIFSCFPLPVNIPTLFVFLNVLFFW”, 51600. As to “SPTSAFGTASAPAATSAFGAPATGAAGGGGGGFSAFAGKPAAFGGAAPAPAPA”, the “transcriptional activation domain activity” value came out at 46100. In the case of “EEEERKQNEKRERAEERRKEKLEEEKEKREKDRKETEKKGGKGKGEQGKGKEK” it was 17200; in that of “IGENDTVDGKRFCTFYPQYREGRVRVNLGVTRLSFRAFYICPLAFTIARYLLN”, 67400; in that of “EFNDIERSVYEIVRKRFIARINSFAAAGQLEKSYTNIFVMLLRLRQLTGHILT”, 48200. For “KAVAALRRQTGQEAVEVEVAPIRQKRRETVGATVTTARPVAGSQTGPALTQVT”, the “transcriptional activation domain activity” value worked out at 14800.

Turning to “IGIVYLLLCPFAFIFAYYFMRLRRTLIGSMPLSVINDPLLVELKVRFQLLDRG”, the “transcriptional activation domain activity” value amounted to 42000.

On to “SFHAFFFLYLPCCLFFYFCIVLVLVLVGYWCLVFFFIVFGSFPPPLLSKYLHL”, for which the “transcriptional activation domain activity” value was determined as 46200. Turning to “DFWDYLIVSLVPSLCVFFVRYFMFMVLFIVVGYFIPLLMCYMSYSIIRYPLFH”, the “transcriptional activation domain activity” value turned out to be 43400. In the case of “LSVVHISAPGYQAFFLLQSFRYILLWVLSFLSHFFLPFFLLCQGCFLVQHLPT” it was 54000; in that of “GAYYLVSGLNGFELYEFDDNYHCGCCRDVHYRLFWFLIETISVLHGRWVFLQV”, 28800. Turning to “FFFFPFLSLLFFFFPFLLSLLSSSLLLAAFSCFCFLPSLTPLPLSSSSSSPLF”, the “transcriptional activation domain activity” value worked out at 34900. For “FHSLLSPFHASFLSLFYPHSLSCFYLFPFLHAFVFLFHFRCGFLGVSCILLSA”, the “transcriptional activation domain activity” value is 73200. With “LFSFLFPLLLFFSHSFFFYPFLCPLLLPPSLSFYLPLSLSSLSPIPCICFFSD”, the “transcriptional activation domain activity” value amounted to 63200. As for “DNYILNNENDDGLDNLLGMDYYNIDDLLTQELRDLDIPLVPSPKTGDGSSDKK”, the figure is 109000; as for “VWIVIYISLSYLFSGVLESVILIYSWIRGFPVIQLLFPKCQVYMNGFLVLFVI”, 61200. Consider “GFLLLLLLLFVFSLVVVHGIVSVSVFYQFFRPYCRFFLFYPYWFIYFLFCLLA”, for which the “transcriptional activation domain activity” value was 58500. As to “SQKKHCELCKTAFRFTKLYSPDMPKHLPFHIFVHHMTRYLIRNFLVWLRAALV”, the “transcriptional activation domain activity” value was determined as 61500. In the case of “RQLFIRGRMQTIMLDCFLELCYRGACSLSSFEHPINWFEAPSDCLIWIRRMMY”, the “transcriptional activation domain activity” value was 36600. In the case of “MFCLRSWIPVLFFLLRTNASPVYLVLFLSATYFLNRPCVYCSLLLFILVVALF” it was 46500; in that of “MFFCYLTVILSMDAFYYYQSHLNWTSTQLYVTWFNACFRNGLIRIIYFVFWWL”, 76300.

As to “SKGAKKDAGPRGAVRRAKKKGGVEPEKKKREKDGGSREKSRSSSKKEKGGFER”, the “transcriptional activation domain activity” value worked out at 15200. In the case of “MDATAKKAVEQPKRRACDECRGRKLACSKEVDGCARCKREGIKCVYSAQKRMG” it was 10500; in that of “MKGIRLYFRYVLLHVLLLLPSLPFFFPYLCRRFTCSFMNILIGFLFCFFLYIC”, 55300. In the case of “IFSLILALIGMIILATIDVVHKIGVTYFACFLMAAGSYVPTVLVHSWHNNNNL” it was 50300; in that of “HSVHAGLIFPLFHRHCFYMLESSLRTKSDRLVFNSLSSHAGVIAWLRTQGVLQ”, 65500; in that of “SSDEEEEPRPKGKGKGKAAVVKAKPKPVAEKGNNAGGKRKRDADSEADGGAAK”, 44000.

With “PAEATVAITNVLYVVQKYYPGSHNLITLLLAIRCVMFTVFRFVAAPLCVTHAL”, the “transcriptional activation domain activity” value was 46700.

Take “GLHFERRLFHLLFSTVCISICFCLLVFNLLIQNYMKKADQKEGMAAFAEKRKP”: the “transcriptional activation domain activity” value came to 28000.

Take “MLLTFFFPLYCTSSFRVTQFLYPFQTLLFTFVFQAYLLLFLLFLLLLLLCFSP”: the “transcriptional activation domain activity” value was found to be 41000.

Regarding “KKSVLQLLAWLMHYKLYPTRNYKAICNCLPKLFENPLWAEFCSKMADTMVKYN”, the “transcriptional activation domain activity” value stood at 46300.

As for “AIENGGASDGEPKKRVRKRGGRKNKARRDSAAAAAAAAAAAAAGGQSSAALAP”, the “transcriptional activation domain activity” value is less than 6570. With “RASAAVPRRRDSTDSSDSEGDIRAAMAAARRKQAKVPAPRPVVENRPAPANTP”, the “transcriptional activation domain activity” value was 36300. For the sequence “MNGDRDSGRSRDHYSSRGDRDDRRDRDRDRRRRSRSPGHRSSRRDYEVDTYSS”, the “transcriptional activation domain activity” value was 45700.

As for “FWPWTFWPWIFWTFGLFGLGLFGLGLFGFFGLFGPLDFLDFLDFLALDFLDFL”, the “transcriptional activation domain activity” value amounted to 37000. Turning to “GLFLVFGFWYIGVCSYGFLGFSLSLGGVYIRFFLYYHYQRILRLISLPFPVWF”, the “transcriptional activation domain activity” value was 59700. On to “HVDSYLRYLISHCKGRISSRGLVTARFLERRMRHLVWLLKVECVKWEYSPYTR”, for which the “transcriptional activation domain activity” value was 79400. As for “PDHIHHHSNNMNNEDNDNNNGSNNKVSNDSKLDFVTDDLEYHLANTHPDDTND”, the figure is 47000.

The record behind these values is the supplement of paper PMC12636428.
